Results as given in the supplement of paper PMC10126150.
± gives the standard deviation of the averaged measurements.

System: ATP
Test: switch fluorescence ratio, 500 uM ATP over buffer (Cy3 cluster intensity, sum of 5 cycles each) (fold (ratio)); higher = stronger signal-on switching upon ATP binding; sequences stand for … in TCGTCGGCAGCGTCAGATGTGTATAAGAGACAGTTTTTTTTTTTTTTTTTTTTTTTTT…TC
Settings: aptamer strand: ATP DNA aptamer (quencher-CACCTGGGGGAGTATTGCGGAGGAAGG + anchor), 100 nM annealed; ATP concentration: 500 uM
Outline: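 Values give the fluorescence ratio for each switch-domain sequence, averaged from per-cluster ratios of summed target-cycle to summed buffer-cycle Cy3 intensity. The Cy3-labelled switching-strand clusters sat on a modified Illumina MiSeq flow-cell, were annealed to 100 nM quencher-labelled ATP aptamer, and were imaged in selection buffer, then after 15 min with 500 uM ATP at 22 °C. Five cycles ran with NaOH stripping and re-annealing between them, and clusters outside 100-1000 RFU were excluded.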
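Also: ATP exposure 15 min at 22 °C before imaging.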

Sequence | switch fluorescence ratio
TCATTGATTG | 0.999 ± 0.022
TCATTGGGGT | 0.957 ± 0.033
TCATTGGGTT | 0.977 ± 0.026
TCATTGGTAG | 1.001 ± 0.0054
TCATTGGTT | 0.985 ± 0.021
TCATTGTTAT | 0.999 ± 0.036
TCATTTAAGA | 0.954 ± 0.014
TCATTTAGGG | 0.9893 ± 0.0081
TCATTTATCA | 1 ± 0.053
TCATTTATGG | 0.999 ± 0.023
TCATTTATTA | 1.04 ± 0.023
TCATTTATTT | 0.98 ± 0.015
TCATTTCCGG | 1.046 ± 0.0072
TCATTTCGGC | 0.982 ± 0.032
TCATTTCTGC | 1.01 ± 0.037
TCATTTGGAG | 0.9816 ± 0.0076
TCATTTGGCA | 0.983 ± 0.01
TCATTTTCCG | 0.996 ± 0.043
TCATTTTGG | 0.992 ± 0.015
TCATTTTTCT | 0.98 ± 0.021
TCATTTTTGG | 1 ± 0.012
TCCAAAGATG | 0.9892 ± 0.005
TCCAAATTTT | 1.02 ± 0.016
TCCAACTGCA | 1.5 ± 0.087
TCCAAGGGTG | 1.46 ± 0.15

Sequence | switch fluorescence ratio
TCCAATGATG | 1.03 ± 0.018
TCCACGGGTA | 1.08 ± 0.068
TCCACTGGAT | 1.03 ± 0.013
TCCAGACTCT | 1.02 ± 0.011
TCCAGATTTT | 1 ± 0.012
TCCAGCCCGT | 1.02 ± 0.027
TCCAGCTAAA | 1.09 ± 0.014
TCCAGGAGGT | 1.02 ± 0.033
TCCAGGCGTA | 1.021 ± 0.0089
TCCAGGCTTT | 1.05 ± 0.071
TCCAGGGGGG | 1.18 ± 0.27
TCCAGGGGTC | 1.38 ± 0.13
TCCAGGTGCG | 2.96 ± 0.33
TCCAGTCATT | 0.998 ± 0.01
TCCAGTGGCT | 1 ± 0.017
TCCAGTGGGA | 1.11 ± 0.087
TCCAGTGTCG | 1.01 ± 0.056
TCCAGTGTTG | 1.08 ± 0.071
TCCAGTTATT | 1 ± 0.019
TCCATACAAG | 0.983 ± 0.055
TCCATAGTGA | 1.26 ± 0.085
TCCATCGGGA | 1.14 ± 0.14
TCCATCGGGT | 1.01 ± 0.038
TCCATGTGTT | 1.01 ± 0.037
TCCATTTATC | 0.982 ± 0.04

Sequence | switch fluorescence ratio
TCCCATTTTG | 1.01 ± 0.043
TCCCCAATAA | 3.11 ± 0.39
TCCCCATGGT | 2.07 ± 0.068
TCCCCCACAG | 2.05 ± 0.22
TCCCCGTCTG | 1.14 ± 0.15
TCCCCTGTCG | 1.07 ± 0.085
TCCCCTTGCT | 1.03 ± 0.094
TCCCGATTGG | 0.959 ± 0.028
TCCCGGCCTG | 1.012 ± 0.0041
TCCCGGGGGG | 1.14 ± 0.26
TCCCGGGTTA | 1.01 ± 0.013
TCCCTATCAC | 1.1 ± 0.042
TCCCTTTGGG | 0.971 ± 0.038
TCCGAAACAT | 1.575 ± 0.011
TCCGAAAGGG | 1.052 ± 0.0062
TCCGAGGGTT | 1.214 ± 0.011
TCCGGATTTT | 1.01 ± 0.016
TCCGGCGGAC | 1.149 ± 0.0078
TCCGGCGGCC | 1.09 ± 0.024
TCCGGCGGTT | 1.01 ± 0.04
TCCGGCGTAT | 1.131 ± 0.0055
TCCGGGAATT | 1.02 ± 0.021
TCCGGGCCCA | 1.038 ± 0.0023
TCCGGTATCG | 1.04 ± 0.016
TCCGTAAATT | 1.14 ± 0.013

Sequence | switch fluorescence ratio
TCCGTGGGGG | 1.09 ± 0.14
TCCGTGTGGG | 1.04 ± 0.028
TCCGTTGTTT | 1.03 ± 0.044
TCCGTTTCGG | 0.997 ± 0.047
TCCGTTTTGA | 1.001 ± 0.0095
TCCTAAACGG | 0.988 ± 0.03
TCCTACGGGG | 1.14 ± 0.18
TCCTAGGTGT | 4 ± 0.28
TCCTAGTTGT | 0.9798 ± 0.0013
TCCTATATAA | 1.03 ± 0.058
TCCTATTAGG | 0.9888 ± 0.0054
TCCTCATGTT | 1.07 ± 0.032
TCCTGGAGCG | 1.08 ± 0.068
TCCTGGATGG | 0.98 ± 0.022
TCCTGGCTGT | 1.09 ± 0.027
TCCTGGCTTT | 1.26 ± 0.29
TCCTGGTGAT | 1.22 ± 0.12
TCCTGTCTTT | 1.01 ± 0.014
TCCTGTGGGA | 1.007 ± 0.0053
TCCTTCACCT | 1.24 ± 0.069
TCCTTGCTGT | 1.12 ± 0.095
TCCTTGTAAG | 1.01 ± 0.03
TCCTTGTAGT | 1.11 ± 0.17
TCCTTTATTG | 1.01 ± 0.021
TCCTTTTAGA | 1.01 ± 0.011

Sequence | switch fluorescence ratio
TCCTTTTGG | 0.996 ± 0.044
TCGAAATAGG | 1.005 ± 0.0023
TCGAAATCGG | 1.03 ± 0.021
TCGAAGAAGT | 0.997 ± 0.016
TCGAAGCCGG | 0.9774 ± 0.0061
TCGAAGGCAT | 1.06 ± 0.03
TCGAAGGGGT | 0.982 ± 0.013
TCGAAGTCAG | 1.06 ± 0.044
TCGAATAACT | 2.2 ± 1.7
TCGAATATCA | 1.007 ± 0.0097
TCGAATTTGT | 0.99 ± 0.03
TCGACAAAGG | 1.07 ± 0.021
TCGACATGGT | 0.995 ± 0.041
TCGACCATCG | 0.974 ± 0.033
TCGACCTTCT | 1.77 ± 0.17
TCGACGATTT | 1.23 ± 0.26
TCGACGGGGG | 1.06 ± 0.081
TCGAGACAGG | 1 ± 0.027
TCGAGAGTAG | 0.948 ± 0.016
TCGAGATGTA | 1.03 ± 0.067
TCGAGATTAA | 1.01 ± 0.024
TCGAGCAGTG | 1.06 ± 0.013
TCGAGCCGAA | 1.04 ± 0.019
TCGAGGAGTT | 1.012 ± 0.01
TCGAGGCTGT | 1.18 ± 0.05

Sequence | switch fluorescence ratio
TCGAGGGAAG | 0.998 ± 0.023
TCGAGGGTCT | 1.023 ± 0.0083
TCGAGTATCG | 1.02 ± 0.044
TCGAGTCGGT | 1.02 ± 0.034
TCGAGTTGGT | 1.01 ± 0.0018
TCGAGTTGTT | 0.988 ± 0.021
TCGAGTTTGC | 0.931 ± 0.027
TCGATAAATG | 1.06 ± 0.033
TCGATAATTT | 0.986 ± 0.022
TCGATCTTGG | 0.988 ± 0.011
TCGATGCTAG | 1.03 ± 0.065
TCGATGGTTT | 1.013 ± 0.01
TCGATTCAGT | 0.9804 ± 0.0054
TCGATTTGGC | 1 ± 0.045
TCGCAGTTTC | 1.7002 ± 0.00038
TCGCATTGGT | 1.24 ± 0.037
TCGCCCGCGA | 1.51 ± 0.063
TCGCGAAATG | 0.968 ± 0.025
TCGCGCGGGT | 0.9887 ± 0.008
TCGCGGTTAT | 1.06 ± 0.029
TCGCGTGTTG | 1.017 ± 0.0032
TCGCGTTGTG | 1.02 ± 0.034
TCGCTGCGGA | 1.01 ± 0.018
TCGCTGCTTG | 1.065 ± 0.0074
TCGCTTATCG | 1.02 ± 0.072

Sequence | switch fluorescence ratio
TCGCTTGGGA | 1.03 ± 0.017
TCGCTTTTGG | 1.02 ± 0.033
TCGGAAAAAT | 0.966 ± 0.0099
TCGGAAGGGT | 0.9933 ± 0.0075
TCGGAATGTG | 1.01 ± 0.045
TCGGAATGTT | 1.02 ± 0.025
TCGGAATTGC | 1.56 ± 0.33
TCGGACACAT | 1.07 ± 0.03
TCGGACATGG | 1.015 ± 0.0082
TCGGACGGGC | 1.26 ± 0.18
TCGGACTCGT | 1.03 ± 0.044
TCGGAGACTC | 1.05 ± 0.022
TCGGAGATCG | 0.9443 ± 0.001
TCGGAGCTTG | 1.16 ± 0.064
TCGGAGGAGC | 1.05 ± 0.026
TCGGAGGCTT | 1 ± 0.027
TCGGAGGGTT | 1.016 ± 0.0052
TCGGAGTGGG | 1.03 ± 0.043
TCGGATTCGA | 1.015 ± 0.0092
TCGGATTGGG | 0.993 ± 0.033
TCGGCAATTT | 1.4 ± 0.34
TCGGCAGCGG | 1.01 ± 0.034
TCGGCAGGGA | 1.01 ± 0.051
TCGGCCACAG | 1.05 ± 0.02
TCGGCCAGAG | 1.01 ± 0.012

Sequence | switch fluorescence ratio
TCGGCGAAAA | 1.84 ± 1.1
TCGGCGGCGG | 0.974 ± 0.027
TCGGCGGGCG | 0.986 ± 0.043
TCGGCGTAAG | 0.998 ± 0.03
TCGGCGTTGG | 1.03 ± 0.026
TCGGCTGTAT | 1.69 ± 0.94
TCGGCTTAGC | 0.981 ± 0.012
TCGGCTTCCT | 1.27 ± 0.031
TCGGGAAGGG | 0.991 ± 0.014
TCGGGAATTT | 1.067 ± 0.0091
TCGGGACATA | 1.02 ± 0.041
TCGGGACGTT | 1.02 ± 0.044
TCGGGAGAAG | 1.01 ± 0.013
TCGGGAGCGT | 1.01 ± 0.033
TCGGGAGTTG | 0.952 ± 0.024
TCGGGATTGA | 0.98 ± 0.013
TCGGGATTTT | 0.997 ± 0.041
TCGGGCAGTG | 0.99 ± 0.03
TCGGGCGCAT | 1.27 ± 0.026
TCGGGCGG | 1.03 ± 0.014
TCGGGCTTTT | 0.969 ± 0.026
TCGGGGAAAT | 1.01 ± 0.023
TCGGGGAATT | 0.989 ± 0.032
TCGGGGCCGC | 0.981 ± 0.11
TCGGGGCCTT | 0.998 ± 0.033
